Measured values from patent publication US20210253736A1 (published 2021).

T1: Cyno FAP
T1 chain: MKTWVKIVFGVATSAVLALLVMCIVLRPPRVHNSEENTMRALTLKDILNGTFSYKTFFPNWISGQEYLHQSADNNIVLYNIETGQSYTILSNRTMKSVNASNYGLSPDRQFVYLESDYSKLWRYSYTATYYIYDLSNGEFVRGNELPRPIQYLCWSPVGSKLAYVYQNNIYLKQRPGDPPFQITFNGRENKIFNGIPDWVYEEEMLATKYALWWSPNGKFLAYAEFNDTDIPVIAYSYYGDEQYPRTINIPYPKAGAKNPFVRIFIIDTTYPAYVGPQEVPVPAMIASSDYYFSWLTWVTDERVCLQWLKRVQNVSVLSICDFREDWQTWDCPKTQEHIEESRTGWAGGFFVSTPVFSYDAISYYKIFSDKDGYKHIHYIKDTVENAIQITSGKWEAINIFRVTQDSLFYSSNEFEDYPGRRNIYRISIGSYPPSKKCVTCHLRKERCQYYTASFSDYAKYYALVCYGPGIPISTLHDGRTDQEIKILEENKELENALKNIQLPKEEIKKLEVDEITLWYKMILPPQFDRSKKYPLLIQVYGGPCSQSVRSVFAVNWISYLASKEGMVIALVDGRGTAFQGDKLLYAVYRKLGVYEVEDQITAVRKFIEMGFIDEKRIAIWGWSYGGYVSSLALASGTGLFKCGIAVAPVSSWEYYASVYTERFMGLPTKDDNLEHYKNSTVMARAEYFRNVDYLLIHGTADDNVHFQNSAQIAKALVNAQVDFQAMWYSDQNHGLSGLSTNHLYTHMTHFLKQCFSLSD

B1: XENP23930 (29B11, bottle-opener) (antibody)
chain 1: EVQLLESGGGLVQPGGSLRLSCAASGFTFSSYAMSWVRQAPGKGLEWVSAIIGSGGITYYADSVKGRFTISRDNSKNTLYLQMNSLRAEDTAVYYCAKGWFGGFNYWGQGTLVTVSSASTKGPSVFPLAPSSKSTSGGTAALGCLVKDYFPEPVTVSWNSGALTSGVHTFPAVLQSSGLYSLSSVVTVPSSSLGTQTYICNVNHKPSDTKVDKKVEPKSCDKTHTCPPCPAPPVAGPSVFLFPPKPKDTLMISRTPEVTCVVVDVKHEDPEVKFNWYVDGVEVHNAKTKPREEEYNSTYRVVSVLTVLHQDWLNGKEYKCKVSNKALPAPIEKTISKAKGQPREPQVYTLPPSREEMTKNQVSLTCDVSGFYPSDIAVEWESDGQPENNYKTTPPVLDSDGSFFLYSKLTVDKSRWEQGDVFSCSVMHEALHNHYTQKSLSLSPGK
chain 2: not shown
chain 3: EIVLTQSPGTLSLSPGERATLSCRASQSVTSSYLAWYQQKPGQAPRLLINVGSRRATGIPDRFSGSGSGTDFTLTISRLEPEDFAVYYCQQGIMLPPTFGQGTKVEIKRTVAAPSVFIFPPSDEQLKSGTASVVCLLNNFYPREAKVQWKVDNALQSGNSQESVTEQDSKDSTYSLSSTLTLSKADYEKHKVYACEVTHQGLSSPVTKSFNRGEC
B2: XENP23934 (3F2, bottle-opener) (antibody)
chain 1: not shown
chain 2: not shown
chain 3: B1 chain 3

Assays:
His-tagged human FAP = His-tagged human FAP (human, UniProt Q12884 26-760); assay: Octet
Cyno FAP = target: T1, Cyno FAP; assay: Octet

Binder	Kd (His-tagged human FAP) [nM]	Kd (Cyno FAP) [nM]
B1	0.00482	0.0264
B2	5.46	3.16
